Experimental data reported in US6537804B1, “BCR-ABL directed compositions and uses for inhibiting Philadelphia chromesome stimulated cell growth” (Board of Regents, The University of Texas Systems, priority 1995, dated 2003).
Non-standard residues stand in square brackets, D forms with d. No end group written: not given here. pS = N[C@@H](COP(=O)(O)O)C(=O)O

Key:
[1] = molecular target: T1, P185 BCR-ABL (Homo sapiens, UniProt P00519+P11274); experiment: Bcr-Abl autokinase (immune complex kinase) assay; assay type: biochemical; details: for Inhibition of Bcr-Abl tyrosine kinase activity (autophosphorylation): 50 μg of peptide added to P185 BCR-ABL immune complexes from SUP B15 cells
T1 construct: endogenous in cells; host or cells: SUP-B15 (Ph1-positive ALL cell line)
T1 sequence (P11274+P00519 fused): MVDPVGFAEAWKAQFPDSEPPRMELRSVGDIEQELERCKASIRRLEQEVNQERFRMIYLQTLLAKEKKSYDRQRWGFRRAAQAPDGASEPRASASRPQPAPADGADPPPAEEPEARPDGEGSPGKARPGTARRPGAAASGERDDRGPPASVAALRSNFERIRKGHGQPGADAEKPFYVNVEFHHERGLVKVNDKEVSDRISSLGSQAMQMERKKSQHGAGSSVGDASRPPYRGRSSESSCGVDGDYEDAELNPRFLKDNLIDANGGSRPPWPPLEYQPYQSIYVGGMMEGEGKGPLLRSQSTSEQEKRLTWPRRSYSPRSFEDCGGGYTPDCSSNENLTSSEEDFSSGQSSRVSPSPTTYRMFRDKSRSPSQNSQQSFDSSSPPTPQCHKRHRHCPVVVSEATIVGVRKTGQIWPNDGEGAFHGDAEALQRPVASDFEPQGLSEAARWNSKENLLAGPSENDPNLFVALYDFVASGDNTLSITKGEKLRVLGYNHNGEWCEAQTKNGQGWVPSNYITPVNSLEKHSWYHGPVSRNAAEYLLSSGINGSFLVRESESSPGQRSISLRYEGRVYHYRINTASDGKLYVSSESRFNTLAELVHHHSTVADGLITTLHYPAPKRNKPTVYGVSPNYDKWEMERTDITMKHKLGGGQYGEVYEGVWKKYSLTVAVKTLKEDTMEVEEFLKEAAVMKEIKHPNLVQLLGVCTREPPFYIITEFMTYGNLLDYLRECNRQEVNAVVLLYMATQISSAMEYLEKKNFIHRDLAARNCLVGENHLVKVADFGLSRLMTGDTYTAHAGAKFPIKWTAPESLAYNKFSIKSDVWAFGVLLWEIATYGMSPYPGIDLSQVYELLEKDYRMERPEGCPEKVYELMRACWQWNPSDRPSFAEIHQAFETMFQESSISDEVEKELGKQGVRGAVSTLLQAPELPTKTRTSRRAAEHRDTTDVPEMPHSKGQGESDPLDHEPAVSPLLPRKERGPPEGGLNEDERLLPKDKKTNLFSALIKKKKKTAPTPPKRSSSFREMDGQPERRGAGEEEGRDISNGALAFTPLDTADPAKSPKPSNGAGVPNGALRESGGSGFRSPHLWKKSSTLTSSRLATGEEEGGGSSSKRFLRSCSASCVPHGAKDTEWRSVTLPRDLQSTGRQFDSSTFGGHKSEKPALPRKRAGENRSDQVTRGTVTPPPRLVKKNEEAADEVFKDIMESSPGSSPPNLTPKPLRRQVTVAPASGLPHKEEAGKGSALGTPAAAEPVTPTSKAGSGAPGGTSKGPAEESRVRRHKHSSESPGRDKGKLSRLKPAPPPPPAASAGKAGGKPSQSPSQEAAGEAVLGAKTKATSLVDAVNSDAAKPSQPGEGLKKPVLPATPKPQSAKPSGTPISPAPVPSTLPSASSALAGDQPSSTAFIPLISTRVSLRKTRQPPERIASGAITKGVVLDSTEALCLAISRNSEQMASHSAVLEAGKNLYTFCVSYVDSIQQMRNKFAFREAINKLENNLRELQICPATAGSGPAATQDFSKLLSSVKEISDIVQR
Description: FIG. 21. Phosphoserine Bcr peptide pS354 S17K (SEQ ID NO:22) inhibits the Bcr-Abl tyrosine kinase activity. The SUP B15 cell line derived from a patient with Bcr-Abl-positive acute lymphocytic leukemia (ALL) were grown in culture; cells were lysed and the Bcr-Abl oncoprotein immunoprecipitated with a monoclonal antibody p6D (anti-Abl 51-64). The immune complexes were mixed with either no peptide or 50 μg of peptide prior to addition of the kinase activating buffer containing [γ-^32P]ATP. After the assay was completed, the proteins were fractionated by SDS gel electrophoresis. Radioactive proteins were detected by phosphoimage analysis. Lane 1, no peptide; lane 2, 50 μg of pS354 S17K; lane 3, 50 μg of unphosphorylated S17K.
FIG. 23A, FIG. 23B and FIG. 23C. A Bcr fragment expressed in COS-1 cells inhibits the Bcr-Abl tyrosine kinase in vitro. In these studies, the Bcr fragment was expressed in COS-1 cells, then isolated by immunoprecipitation with anti-Bcr 181-194 antibody. This immune complex was isolated by binding to protein A Sepharose beads; these immune complexes were added to protein A Sepharose beads containing P185 BCR-ABL harvested from SUP B15 leukemic cells with anti-Abl 51-64. The autokinase reaction was performed to measure the tyrosine kinase activity of Bcr-Abl.
Immunokinase Assay: The immunokinase assays were performed as described by Campbell et al. (1990) with modifications. The cells are lysed by homogenizing the cell pellet in two different lysis buffers at 0° C. in a tight fitting Wheaton homogenizer (either 0.1% Triton-X100, 100 mM NaCl, 5 mM EDTA, 10 mM sodium phosphate, pH 7.2 or 1% Triton-X100, 100 mM NaCl, 0.5% sodium deoxycholate, 0.1% SDS, 5 mM EDTA, 10 mM sodium phosphate pH 7.2). Both buffers were supplemented with 30 mM sodium pyrophosphate, 100 KIU aprotinin, 1 mM benzamidine, 1 mM phenylmethylsulfonyl fluoride and 0.2 mM sodium vanadate.
Immunoprecipitation reactions were carried out utilizing 20-40 μl of the respective anti-peptide rabbit sera or 5 μl of monoclonal antibody at 0° C. for 1 hour. Blocked immunoprecipitations refer to those immunoprecipitation reactions performed with antisera that have been preincubated with excess cognate peptide to specifically block the anti-peptide antibodies.
The resulting antigen-antibody immunoprecipitates were collected with 30 μl of 50% protein A-Sepharose (Pharmacia, Uppsala, Sweden), pelleted and washed with RIPA buffer (0.1% Triton X-100, 0.05% SDS, 0.5% sodium deoxycholate, 100 mM NaCl in 10 mM phosphate buffer, pH 7.2), wash buffer (0.1% Triton X-100, 100 mM NaCl, in 10 mM phosphate buffer, pH 7.2) and finally with 50 mM Tris buffer, pH 7.2. […]

[2] = molecular target: T2, P210 BCR-ABL (Homo sapiens, UniProt P00519+P11274); experiment: In vivo tyrosine phosphorylation of truncated Bcr proteins in COS-1 cells, anti-pTyr Western blot; assay type: cell-based; details: COS-1 cells coexpressing p210 Bcr-Abl
T2 construct: expressed in transfected cells; host or cells: COS-1
T2 sequence (P11274+P00519 fused): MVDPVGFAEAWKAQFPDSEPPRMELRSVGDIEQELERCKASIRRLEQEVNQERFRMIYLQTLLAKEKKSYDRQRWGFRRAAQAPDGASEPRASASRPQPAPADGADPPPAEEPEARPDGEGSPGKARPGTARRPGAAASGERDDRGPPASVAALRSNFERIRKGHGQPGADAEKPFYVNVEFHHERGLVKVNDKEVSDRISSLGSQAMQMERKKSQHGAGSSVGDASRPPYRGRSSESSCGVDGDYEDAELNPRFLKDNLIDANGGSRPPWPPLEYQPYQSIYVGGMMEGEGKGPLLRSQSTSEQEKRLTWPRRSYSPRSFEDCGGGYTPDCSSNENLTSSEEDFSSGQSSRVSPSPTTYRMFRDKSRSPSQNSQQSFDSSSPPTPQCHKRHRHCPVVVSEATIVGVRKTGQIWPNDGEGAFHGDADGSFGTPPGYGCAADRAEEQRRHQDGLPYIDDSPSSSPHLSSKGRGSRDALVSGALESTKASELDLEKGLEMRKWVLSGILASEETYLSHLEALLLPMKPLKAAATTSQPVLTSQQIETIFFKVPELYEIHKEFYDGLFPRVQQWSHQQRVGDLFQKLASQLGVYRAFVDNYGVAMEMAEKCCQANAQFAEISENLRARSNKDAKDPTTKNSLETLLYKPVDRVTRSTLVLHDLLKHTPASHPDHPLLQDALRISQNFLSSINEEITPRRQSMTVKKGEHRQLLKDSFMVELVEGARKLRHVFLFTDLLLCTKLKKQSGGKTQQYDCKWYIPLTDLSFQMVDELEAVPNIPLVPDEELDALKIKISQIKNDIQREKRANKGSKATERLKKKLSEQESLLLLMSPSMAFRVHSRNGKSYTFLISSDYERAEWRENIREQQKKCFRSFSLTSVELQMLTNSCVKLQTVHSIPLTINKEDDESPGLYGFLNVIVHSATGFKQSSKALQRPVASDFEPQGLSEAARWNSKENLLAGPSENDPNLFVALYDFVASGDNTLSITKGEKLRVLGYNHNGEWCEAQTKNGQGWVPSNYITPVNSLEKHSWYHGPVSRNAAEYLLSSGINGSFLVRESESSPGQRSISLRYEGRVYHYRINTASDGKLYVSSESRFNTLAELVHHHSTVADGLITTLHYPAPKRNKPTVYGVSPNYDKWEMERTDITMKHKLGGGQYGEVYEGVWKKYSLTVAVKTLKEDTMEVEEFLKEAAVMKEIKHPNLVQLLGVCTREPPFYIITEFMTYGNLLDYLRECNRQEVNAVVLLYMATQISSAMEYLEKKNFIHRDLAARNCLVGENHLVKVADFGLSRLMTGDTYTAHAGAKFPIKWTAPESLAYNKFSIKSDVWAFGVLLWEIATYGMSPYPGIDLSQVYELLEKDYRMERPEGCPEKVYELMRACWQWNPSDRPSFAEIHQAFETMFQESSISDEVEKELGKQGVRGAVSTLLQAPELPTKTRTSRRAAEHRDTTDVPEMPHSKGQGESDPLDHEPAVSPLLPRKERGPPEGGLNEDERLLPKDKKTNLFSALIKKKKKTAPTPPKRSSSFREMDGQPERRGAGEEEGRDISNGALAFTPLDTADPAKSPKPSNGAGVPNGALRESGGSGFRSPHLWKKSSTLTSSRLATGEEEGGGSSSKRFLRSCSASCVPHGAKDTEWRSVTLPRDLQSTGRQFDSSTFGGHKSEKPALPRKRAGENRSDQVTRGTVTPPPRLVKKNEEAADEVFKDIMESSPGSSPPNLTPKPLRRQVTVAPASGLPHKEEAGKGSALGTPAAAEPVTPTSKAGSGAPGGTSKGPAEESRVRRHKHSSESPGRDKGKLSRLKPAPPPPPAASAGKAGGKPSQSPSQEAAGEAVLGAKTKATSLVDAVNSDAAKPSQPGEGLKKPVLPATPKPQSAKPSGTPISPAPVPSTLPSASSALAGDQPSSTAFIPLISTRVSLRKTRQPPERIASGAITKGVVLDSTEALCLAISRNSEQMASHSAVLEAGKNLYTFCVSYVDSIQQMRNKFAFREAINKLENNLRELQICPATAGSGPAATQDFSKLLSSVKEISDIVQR
From the text: FIG. 6A and FIG. 6B. In vivo tyrosine phosphorylation of truncated Bcr first exon sequences by Bcr-Abl. COS-1 vectors expressing Bcr150, Bcr221, and Bcr413 proteins, respectively, were expressed in COS-1 cells in the presence and absence of […].
The next tyrosine is at residue 177, and it is expected to be phosphorylated by Bcr-Abl (Puil et al., 1994). Bcr221 is tyrosine phosphorylated, but as with Bcr413, only in the presence of Bcr-Abl.
Transient transfections of COS1 cells were performed by the diethylaminoethyl (DEAE)-Dextran procedure. Transfection was initiated when COS1 cells were about 60%-80% confluent. After washing once with phosphate-buffered saline (PBS) and once with Tris-buffered Saline-0.02% Dextrose (TBS-D), cells were incubated with TBS-D containing 0.2 mg/ml DEAE-Dextran and 2 μg/ml of each added plasmid. The supernatant was then removed after 5-10 minutes when the cells started to round up and shrink.
After washing once with TBS-D and once with PBS, the cells were incubated in DMEM supplemented with 10% fetal calf serum and 100 μg/ml of chloroquine at 37° C. The chloroquine containing media was removed after 3-5 hours and the cells were washed three times with DMEM without fetal calf serum. The cells were then incubated in DMEM supplemented with 10% fetal calf serum at 37° C. for 2-3 days before harvesting.
COS-1 vectors expressing Bcr159, Bcr221, and Bcr413 proteins, respectively, were expressed in COS-1 cells in the presence and absence of p210 Bcr-Abl.

[3] = test system: casein; experiment: Immune complex kinase assay of mutant P160 BCR, transphosphorylation of casein; assay type: biochemical; details: mutant P160 BCR expressed in COS-1 cells
From the text: Mutant forms of P160^BCR were expressed in COS-1 cells and tested for serine/threonine kinase activities in immune complex kinase assays.
Using the intensities of the P160^BCR bands as an indication of the amount of active P160^BCR in the immune complex and the intensities of the casein bands as a measure of transphosphorylation activity, the transphosphorylation activity of the Y360F Bcr mutant was reduced about sevenfold, compared with that of the wild type. Similarly, the Y360F Bcr mutant was also defective in transphosphorylating another exogenous substrate, histone H1.
The amounts of Bcr within these immune complexes were quantitated in two ways. In a first method, the amounts of Bcr mutants would be underestimated by about 10%, compared with that of the wild type. On the basis of these measurements, the specific activity of transkinase activity (casein intensity/P160^BCR intensity) of the Y360F Bcr mutant (0.03) was reduced more than 20-fold in this study, compared with that of the wild type.
The second method of estimating the amounts of P160^BCR in immune complexes involved the Western blotting of these immune complexes with an anti-Bcr antibody. The specific activity of Y360F was reduced by about sixfold. […] By using autophosphorylation of the Bcr protein as a measure of its relative amount, the reduction of Bcr's transkinase by the Y360F mutation was about sevenfold, confirming the results obtained by the Western blot method.

350-SSRVpS*PSPTTYRMFRDK-366 (SSRV[pS]PSPTTYRMFRDK) [pS354 S17K]
Inhibition of Bcr-Abl tyrosine kinase activity (autophosphorylation) [1]: strongly inhibited

unphosphorylated S17K: unphosphorylated form of Bcr peptide S17K, Bcr residues 350 to 366 (SSRVSPSPTTYRMFRDK)
Inhibition of Bcr-Abl tyrosine kinase activity (autophosphorylation) [1]: little affect

B1: Bcr413: amino acids 1-413 of Bcr, N-terminal fragment (protein)
chain: MVDPVGFAEAWKAQFPDSEPPRMELRSVGDIEQELERCKASIRRLEQEVNQERFRMIYLQTLLAKEKKSYDRQRWGFRRAAQAPDGASEPRASASRPQPAPADGADPPPAEEPEARPDGEGSPGKARPGTARRPGAAASGERDDRGPPASVAALRSNFERIRKGHGQPGADAEKPFYVNVEFHHERGLVKVNDKEVSDRISSLGSQAMQMERKKSQHGAGSSVGDASRPPYRGRSSESSCGVDGDYEDAELNPRFLKDNLIDANGGSRPPWPPLEYQPYQSIYVGGMMEGEGKGPLLRSQSTSEQEKRLTWPRRSYSPRSFEDCGGGYTPDCSSNENLTSSEEDFSSGQSSRVSPSPTTYRMFRDKSRSPSQNSQQSFDSSSPPTPQCHKRHRHCPVVVSEATIVGVRKTGQI
Tyrosine phosphorylation by Bcr-Abl in cells [2]: induces tyrosine phosphorylation

B2: Bcr fragment (64-413): Bcr sequences from amino acid 64 to 413 with both A and B serine-rich boxes, expressed in COS-1 cells (protein)
chain: AKEKKSYDRQRWGFRRAAQAPDGASEPRASASRPQPAPADGADPPPAEEPEARPDGEGSPGKARPGTARRPGAAASGERDDRGPPASVAALRSNFERIRKGHGQPGADAEKPFYVNVEFHHERGLVKVNDKEVSDRISSLGSQAMQMERKKSQHGAGSSVGDASRPPYRGRSSESSCGVDGDYEDAELNPRFLKDNLIDANGGSRPPWPPLEYQPYQSIYVGGMMEGEGKGPLLRSQSTSEQEKRLTWPRRSYSPRSFEDCGGGYTPDCSSNENLTSSEEDFSSGQSSRVSPSPTTYRMFRDKSRSPSQNSQQSFDSSSPPTPQCHKRHRHCPVVVSEATIVGVRKTGQI
Inhibition of Bcr-Abl tyrosine kinase activity (P185 autokinase) ([1]; immune complexes on protein A Sepharose beads added to P185 BCR-ABL immunoprecipitates from SUP B15): potent inhibitor | Inhibitory activity towards Bcr-Abl kinase after boiling ([1]; immunoprecipitate boiled for a few minutes prior to addition to the kinase assay): strongly decreased

B3: Bcr Y283F: P160 BCR with tyrosine 283 to phenylalanine mutation (protein, UniProt P11274 1-1271, looked up, variant Y283F)
Breakpoint cluster region …: MVDPVGFAEAWKAQFPDSEPPRMELRSVGDIEQELERCKASIRRLEQEVNQERFRMIYLQTLLAKEKKSYDRQRWGFRRAAQAPDGASEPRASASRPQPAPADGADPPPAEEPEARPDGEGSPGKARPGTARRPGAAASGERDDRGPPASVAALRSNFERIRKGHGQPGADAEKPFYVNVEFHHERGLVKVNDKEVSDRISSLGSQAMQMERKKSQHGAGSSVGDASRPPYRGRSSESSCGVDGDYEDAELNPRFLKDNLIDANGGSRPPWPPLEYQPYQSIFVGGMMEGEGKGPLLRSQSTSEQEKRLTWPRRSYSPRSFEDCGGGYTPDCSSNENLTSSEEDFSSGQSSRVSPSPTTYRMFRDKSRSPSQNSQQSFDSSSPPTPQCHKRHRHCPVVVSEATIVGVRKTGQIWPNDGEGAFHGDADGSFGTPPGYGCAADRAEEQRRHQDGLPYIDDSPSSSPHLSSKGRGSRDALVSGALESTKASELDLEKGLEMRKWVLSGILASEETYLSHLEALLLPMKPLKAAATTSQPVLTSQQIETIFFKVPELYEIHKEFYDGLFPRVQQWSHQQRVGDLFQKLASQLGVYRAFVDNYGVAMEMAEKCCQANAQFAEISENLRARSNKDAKDPTTKNSLETLLYKPVDRVTRSTLVLHDLLKHTPASHPDHPLLQDALRISQNFLSSINEEITPRRQSMTVKKGEHRQLLKDSFMVELVEGARKLRHVFLFTDLLLCTKLKKQSGGKTQQYDCKWYIPLTDLSFQMVDELEAVPNIPLVPDEELDALKIKISQIKNDIQREKRANKGSKATERLKKKLSEQESLLLLMSPSMAFRVHSRNGKSYTFLISSDYERAEWRENIREQQKKCFRSFSLTSVELQMLTNSCVKLQTVHSIPLTINKEDDESPGLYGFLNVIVHSATGFKQSSNLYCTLEVDSFGYFVNKAKTRVYRDTAEPNWNEEFEIELEGSQTLRILCYEKCYNKTKIPKEDGESTDRLMGKGQVQLDPQALQDRDWQRTVIAMNGIEVKLSVKFNSREFSLKRMPSRKQTGVFGVKIAVVTKRERSKVPYIVRQCVEEIERRGMEEVGIYRVSGVATDIQALKAAFDVNNKDVSVMMSEMDVNAIAGTLKLYFRELPEPLFTDEFYPNFAEGIALSDPVAKESCMLNLLLSLPEANLLTFLFLLDHLKRVAEKEAVNKMSLHNLATVFGPTLLRPSEKESKLPANPSQPITMTDSWSLEVMSQVQVLLYFLQLEAIPAPDSKRQSILFSTEV
Ability to transphosphorylate casein compared with wild-type Bcr [3]: not significantly altered

B4: Bcr221: amino acids 1-221 of Bcr, N-terminal fragment (protein)
chain: MVDPVGFAEAWKAQFPDSEPPRMELRSVGDIEQELERCKASIRRLEQEVNQERFRMIYLQTLLAKEKKSYDRQRWGFRRAAQAPDGASEPRASASRPQPAPADGADPPPAEEPEARPDGEGSPGKARPGTARRPGAAASGERDDRGPPASVAALRSNFERIRKGHGQPGADAEKPFYVNVEFHHERGLVKVNDKEVSDRISSLGSQAMQMERKKSQHGAGS
Tyrosine phosphorylation by Bcr-Abl in cells [2]: induces tyrosine phosphorylation

B5: Bcr159: amino acids 1-159 of Bcr, N-terminal fragment (protein)
chain: MVDPVGFAEAWKAQFPDSEPPRMELRSVGDIEQELERCKASIRRLEQEVNQERFRMIYLQTLLAKEKKSYDRQRWGFRRAAQAPDGASEPRASASRPQPAPADGADPPPAEEPEARPDGEGSPGKARPGTARRPGAAASGERDDRGPPASVAALRSNFE
Tyrosine phosphorylation by Bcr-Abl in cells [2]: not
